Test results reported in the RNAGym collection of RNA variant scans (doi:10.1073/pnas.2313332121).

B1: TPR t1 (parent)
chain: GACCAAUCUGCCCUCAGAGCUCGAGAACAUCUUCGGAUGCAGAGGAGGCAGGCUUCGGUGGCGCGAUAGCGCCAACGUCCUCAACCUCCAAUGCAUCCCACCACAUGAUGAUGCCUGAAGAGCCUUGGUUUUUUG

Variants of: B1
Assay: polymerase ribozyme fitness, log enrichment relative to wild type (log ratio); higher = more active; in vitro selection for triplet polymerase activity
In short: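 Streptavidin-bead capture of gel-excised extended constructs, followed by RT-PCR, closed a single triplicate in vitro selection round. That round began by annealing PCR-built, transcribed mutant libraries of each subunit of a heterodimeric triplet polymerase ribozyme with a biotinylated primer, the partner subunit and triplets, then incubating them frozen at −7 °C. After Illumina sequencing of inputs and outputs, genotypes needed ≥10 input reads and ≥1 read per output. Fitness is the base-2 logarithm of genotype enrichment over wild-type enrichment, using inverse-variance-weighted replicate averages.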

Variant | polymerase ribozyme fitness (log ratio)
G63A A84U C86A U125G | -2.61
A91G G93C G120C | -2.18
A46U C64G C123G C124A | -5.93
A5C A118U U133A | -1.14
A2G U7A C70U A74C | -0.954
U54G G71U A74U G113C A121U | -7.2
A121C G128C | -0.622
A74G U106A U125A | -0.353
A27U C31G G69U C79G G120C U130G U132A | -6.29
C4A A29G C31G A105G A108U A111C C115G C123A | -6.34
C28U G60C | -3.11
A83U U133G | -0.873
A24G U131A | -2.25
C11U G42A U96A | -3.35
G45U G61U | -0.836
C8G C34U G39U G58A A84U | -5.29
G60U C97A | -5.24
C72A A95G C97G C104A A118U G127C | -5.66
G19U A43U G60C C82G | -3.71
G69U A121G | 2.47
C53U C102U | -2.44

Variant | polymerase ribozyme fitness (log ratio)
G52U G113U | -3.87
C8A U59A | -0.964
C28U G52C C56G G120A | -2.52
C8A G39A | -0.0887
C62U G135U | -0.561
A6U C11A C13G G47A G48A A74C A118G | -5.36
G35C A95U | -4.31
A50C G60C C64A A103G C104A C124U | -5.11
U87A C88A G110U G127A | -3.99
A41U U81A A121C | -0.475
U54C G61C | -2.14
A5G U133A | -0.954
A46G C97U U130G | -2.03
G42A U54A C72G C86U G110A C124G | -4.88
C3U G117U | -2.69
C22G G42C | -3.87
G42C C80U U92G | -3.41
G35C C88A | -5.61
G52U G93U | -1.93
C22G A26G C56G A75G | -5.33
U7A G35C A41C C64U C79U G113U | -7.12

Variant | polymerase ribozyme fitness (log ratio)
U33G U130A | -5.01
G45C G48C | -2.05
C49G G120U C124A G135U | -1.63
G10U C56A U112A | 0.0795
A46C C76A | -0.908
G48U G63A C79G | -6.13
A43G C56U C79G A111G | -5.35
C12U C13A C72G U78C | -1.57
C49G C64A G77U A83U G120U | -6.63
A18C G93C | -3.24
G44A C49A C73U U116C | -2.91
C4A C11U G69U C97G | -3.61
A5C C12U | 0.118
A18C G48A A119G G120A U126A | -3.21
G25U C34G G36C C97A U112G | -6.79
U38A U96G U112A G128A | -2.89
U9C C72U U78C A83U A90G A121G | 2.19
C70U G128U U133G | -2.39
A43G G60A C79U G93A | -2.95
A41U A90G | -0.36
C13A A103U A108U G117C U129A | -6.73

Variant | polymerase ribozyme fitness (log ratio)
U33A C88U | -3.66
C20U U54A C73A C115G | -3.1
C3U G48C C76A C79A C101G | -4.45
G42A C53U | -2.41
C53A C82G A84G | -0.378
G51A A68C C79G C80G A84C C124G G128C | -7.23
G69U C86U U109A C115G U126A | -7.39
C4U C13A A26U U55G C62U | -4.16
A6U C40A C56G A84G C104U | -2.66
G110A G117U | -4.78
G51U C62A | -5.43
A2C C15U C104U | -2.51
A50U C76A C82U | -1.67
C53U A90G A95G | 0.749
A41U G63C A95C | -3.24
U7G C12U G36A C40A G45A G71U | -3.31
A5C C8G C40U U112G U133G | -0.864
U87C U126G | -1.22
C15U A16U G71A C115A | -3.96
G63U U92A | -5.39
